Data reported in patent US20190309084A1 (ALLIGATOR BIOSCIENCE, published 2019).
Changes are numbered by the printed parent chain. One block for each binder: values may come before it.

Key:
[1] = biological target: T1, GITR-hFc (R&D Systems, #689-GR) (human, UniProt Q9Y5U5 26-161); test: dual ELISA: GITR-hFc coated, bispecific titrated, biotinylated CTLA-4-mFc then streptavidin-HRP, luminescence
T1 construct: Bought; also called Human GITR (coated in ELISA plates); not shown: human Fc part of a bought fusion protein
T1 sequence: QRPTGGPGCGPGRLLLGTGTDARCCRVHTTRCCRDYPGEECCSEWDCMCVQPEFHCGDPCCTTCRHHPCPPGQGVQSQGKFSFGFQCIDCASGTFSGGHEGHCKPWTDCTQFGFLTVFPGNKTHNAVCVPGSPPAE

[2] = biological target: T2, Human GITR (Acro Biosystems, #GIR-H5228) (human, UniProt Q9Y5U5 26-161); test: BLI (Octet RED96), GITR amine-coupled to AR2G tips, bispecific as analyte, 1:1 fit
T2 construct: Bought recombinant protein, amine-coupled to the sensor tips; also called hGITR
T2 sequence: T1 sequence

[3] = biological target: T3, human CTLA-4 (ACRO Biosystems, #CT4-H5229) (human, UniProt P16410 38-152); test: BLI (Octet RED96), bispecific captured on anti-hIgG Fc (AHC) tips, hCTLA-4 as analyte, 1:1 fit
T3 construct: Bought recombinant protein, used as analyte in solution; also called hCTLA-4
T3 sequence (P16410 38-152 limits assumed): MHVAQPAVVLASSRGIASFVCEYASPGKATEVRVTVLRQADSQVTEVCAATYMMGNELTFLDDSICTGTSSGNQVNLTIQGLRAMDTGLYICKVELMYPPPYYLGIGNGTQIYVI

[4] = biological target: T1, GITR-hFc (R&D Systems, #689-GR); test: dual ELISA: GITR-hFc coated, bispecific titrated, detected with biotinylated CTLA-4-mFc + streptavidin-HRP (signal needs binding to both targets); wildtype IgG1; dual ELISA, signal needs both GITR and CTLA-4
[5] = biological target: T1, GITR-hFc (R&D Systems, #689-GR); test: dual ELISA: GITR-hFc coated, bispecific titrated, detected with biotinylated CTLA-4-mFc + streptavidin-HRP (signal needs binding to both targets); afucosylated IgG1; dual ELISA, signal needs both GITR and CTLA-4

EC50 (read off the curve) [1]: ~600 pM | Kd [2]: 1670 pM | koff [2]: 0.000423 s⁻¹ | kon [2]: 254000 M⁻¹ s⁻¹
B1: GITR/CTLA-4 bispecific antibody 2404/2405 (bispecific antibody, IgG1)
VH: EVQLLESGGGLVQPGGSLRLSCAASGFTFSYSSMSWVRQAPGKGLEWVSYIGSGGSHTYYADSVKGRFTISRDNSKNTLYLQMNSLRAEDTAVYYCARYSYYFDYWGQGTLVTVSS
light: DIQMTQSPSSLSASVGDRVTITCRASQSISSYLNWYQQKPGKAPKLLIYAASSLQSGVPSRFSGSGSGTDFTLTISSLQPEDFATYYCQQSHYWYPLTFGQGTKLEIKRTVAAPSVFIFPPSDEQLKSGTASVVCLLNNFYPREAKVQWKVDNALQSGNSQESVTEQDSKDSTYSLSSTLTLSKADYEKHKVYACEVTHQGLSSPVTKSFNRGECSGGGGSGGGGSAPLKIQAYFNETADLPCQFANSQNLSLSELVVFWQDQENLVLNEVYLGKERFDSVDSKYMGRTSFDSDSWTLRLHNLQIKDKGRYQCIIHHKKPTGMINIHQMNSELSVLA

EC50 (read off the curve) [1]: ~1000 pM | Kd [2]: 346 pM | koff [2]: 5.28e-05 s⁻¹ | kon [2]: 153000 M⁻¹ s⁻¹
B2: GITR/CTLA-4 bispecific antibody 2348/2349 (bispecific antibody)
VH: EVQLLESGGGLVQPGGSLRLSCAASGFTFGYYYMSWVRQAPGKGLEWVSGISSPSSYTYYADSVKGRFTISRDNSKNTLYLQMNSLRAEDTAVYYCARYYGSYFDYWGQGTLVTVSS
light: DIQMTQSPSSLSASVGDRVTITCRASQAISAYLNWYQQKPGKAPKLLIYAASSLQSGVPSRFSGSGSGTDFTLTISSLQPEDFATYYCQQSYGYYLYTFGQGTKLEIKRTVAAPSVFIFPPSDEQLKSGTASVVCLLNNFYPREAKVQWKVDNALQSGNSQESVTEQDSKDSTYSLSSTLTLSKADYEKHKVYACEVTHQGLSSPVTKSFNRGECSGGGGSGGGGSAPLKIQAYFNETADLPCQFANSQNLSLSELVVFWQDQENLVLNEVYLGKERFDSVDSKYMGRTSFDSDSWTLRLHNLQIKDKGRYQCIIHHKKPTGMINIHQMNSELSVLA
notes: Anti-GITR IgG with CD86 mutant 1040 fused to the C-terminus of the kappa chain

Kd [3]: 2900 pM | koff [3]: 0.000551 s⁻¹ | kon [3]: 190000 M⁻¹ s⁻¹ | EC50 (read off the curve) [1]: ~500 pM | EC50 [4]: 640 pM | Kd [2]: 608 pM | koff [2]: 0.000214 s⁻¹ | kon [2]: 351000 M⁻¹ s⁻¹
B3: GITR/CTLA-4 bispecific antibody 2372/2373, wildtype IgG1 format (bispecific antibody)
VH: EVQLLESGGGLVQPGGSLRLSCAASGFTFSGYSMGWVRQAPGKGLEWVSAISGSGGSTYYADSVKGRFTISRDNSKNTLYLQMNSLRAEDTAVYYCARYPWGYYFDYWGQGTLVTVSS
light: B2 light with A28G, S30R, A51V, S91Y, G93Y, Y94P, Y95P, Y97S

EC50 [5]: 540 pM
B4: GITR/CTLA-4 bispecific antibody 2372/2373, afucosylated IgG1 format (bispecific antibody)
VH: B3 VH
light: B2 light with A28G, S30R, A51V, S91Y, G93Y, Y94P, Y95P, Y97S
modifications: afucosylated Fc domain
